# Molecular target: EPHA2 tagged with a fluorescent protein for FRET (EPHA2-mClover3, EPHA2-mRuby3) (human) (UniProt P29317)
# Experiment: FRET or BRET
substance,measurement,value
"EPHA2 tagged with a fluorescent protein for FRET (EPHA2-mClover3, EPHA2-mRuby3) (from UniProt P29317 24-976) (receptor)",N-FRET,0.347

# Reference: paper PMC7644594
